Assay results taken from patent US20230272011A1 (AVACTA LIFE SCIENCES, published 2023).

Experiments:
[1] = target: T1, human serum albumin (human, UniProt P02768 25-609); assay: SPR (Biacore) binding response to HSA at pH 7.4, Affimer at 50 nM
T1 construct: mature; Bought protein; biotinylated in the Octet and HTRF assays; also called HSA; HuSA
Excerpt: Final clones were sequence-verified, produced from E. coli, and affinity purified as described in Example 3.

[2] = target: T1, human serum albumin; assay: BLI (Octet), biotinylated albumin on SA sensor, pH 6.0
Method in brief: (§1)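 Affinity is measured against albumin captured at 1 μg/ml on streptavidin tips, in PBS-T (0.01% Tween 20) plus 1% casein at the stated pH, at 25° C.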

[3] = target: T2, cynomolgus serum albumin (cynomolgus); assay: as above
T2 construct: also called CSA; cyno serum albumin
Method in brief: as §1

[4] = target: T3, mouse serum albumin (mouse, UniProt P07724 25-608); assay: as above
T3 construct: also called MSA
Method in brief: as §1

[5] = target: T3, mouse serum albumin; assay: binding ELISA on coated MSA, panel title 'Affimer binding to MSA, pH 7' (legend: pH 7.4)
Description: (§2) Human (Sigma-Aldrich); Cynomolgus and Mouse (Abcam); Equine (Abcam); Canine (Abcam); Mouse (Sigma-Aldrich); Rabbit (Sigma-Aldrich); Porcine (Sigma-Aldrich);, and Rat (Sigma-Aldrich) serum albumin were coated overnight on 96 well plates (Corning Costar) at 1 μg/ml in PBS at the appropriate pH (pH 6.0 or 7.4). Plates were saturated using 5% Casein (Sigma-Aldrich) buffer in PBS. […] Plates were then washed and AFFIMER® proteins were detected using a biotinylated polyclonal antibody anti-Cystatin (R&D System) for 90 minutes. After washing, streptavidin-HRP (Thermo Fisher Scientific) was added and incubated for 30 minutes.
(§3) Briefly, PD-1 was coated overnight on the plate at 1 μg/ml in carbonate buffer. Then plates were saturated using 5% Casein/PBS buffer. […] After saturation, the mix was added to the plates and incubated for 90 minutes. Plates were then washed and the detection polyclonal antibody, biotinylated anti-PD-L1, was added. After washing the plates, streptavidin-HRP was added for 30 minutes. After a final wash, development of the reaction was performed using TMB (Pierce) and the plates were read using a plate reader at 450 nm (FIG. 26C).

[6] = target: T1, human serum albumin; assay: binding ELISA on coated HSA, pH 7.4
Description: After saturation with 5% PBS Casein pH 7.5, plates were washed and a dilution of AFFIMER® polypeptides or controls were incubated for 90 minutes. Plates were then washed, and a biotinylated polyclonal antibody anti-cystatin A (R&D Systems) was added for 1 hour. Plates were washed and AFFIMER® polypeptides were detected using streptavidin-HRP. After a last washing step, TMB was added for the development of the experiment and the plates were read at 450 nm.

[7] = target: T3, mouse serum albumin; assay: binding ELISA on coated MSA, pH 6.0
Description: as §2, §3

[8] = target: T2, cynomolgus serum albumin; assay: binding ELISA on coated albumin, pH 6.0, panel 'CSA Binding at pH 6.0'
Description: Briefly, ELISA was performed as follow:
as §2

[9] = target: T1, human serum albumin; assay: BLI (Octet), biotinylated albumin on SA sensor, pH 7.4
Method in brief: as §1

[10] = target: T2, cynomolgus serum albumin; assay: as above
Method in brief: as §1

[11] = target: T3, mouse serum albumin; assay: as above
Method in brief: as §1

[12] = target: T1, human serum albumin; assay: Biacore, immobilised HSA, pH 7.4
Description: (§4) Affinities for mouse, human, and cynomolgus serum were also measured at pH 7.4 for four (4) AFFIMER® binders using surface plasmon resonance (SPR) (FIG. 5, Table 5). […] A concentration titration of AFFIMER® monomers was run as analyte at a flow rate of 30 μl/min or 60 μl/min. Fc2-1, Fc3-1 and Fc4-1 kinetic data was blank subtracted and fit to a 1:1 Langmuir binding model (BIAcore Evalution software; GE) to calculate KD values.

[13] = target: T1, human serum albumin; assay: SPR (Biacore T200), albumin amine-coupled to CM5, Affimer analyte, pH 7.4
Description: as §4

[14] = target: T2, cynomolgus serum albumin; assay: as above
Description: as §4

[15] = target: T3, mouse serum albumin; assay: as above
Description: as §4

[16] = target: canine serum albumin (canine, UniProt P49822 25-608); assay: binding ELISA on coated albumin, pH 6.0, panel 'Canine SA Binding at pH 6.0'
[17] = target: T1, human serum albumin; assay: Biacore, immobilised HSA, pH 7.4; remark: listed apart in the source
Description: as §4
The AFFIMER® polypeptides were produced and purified from E. coli as described in Example 3.

T2 sequence (A2V9Z4 25-608): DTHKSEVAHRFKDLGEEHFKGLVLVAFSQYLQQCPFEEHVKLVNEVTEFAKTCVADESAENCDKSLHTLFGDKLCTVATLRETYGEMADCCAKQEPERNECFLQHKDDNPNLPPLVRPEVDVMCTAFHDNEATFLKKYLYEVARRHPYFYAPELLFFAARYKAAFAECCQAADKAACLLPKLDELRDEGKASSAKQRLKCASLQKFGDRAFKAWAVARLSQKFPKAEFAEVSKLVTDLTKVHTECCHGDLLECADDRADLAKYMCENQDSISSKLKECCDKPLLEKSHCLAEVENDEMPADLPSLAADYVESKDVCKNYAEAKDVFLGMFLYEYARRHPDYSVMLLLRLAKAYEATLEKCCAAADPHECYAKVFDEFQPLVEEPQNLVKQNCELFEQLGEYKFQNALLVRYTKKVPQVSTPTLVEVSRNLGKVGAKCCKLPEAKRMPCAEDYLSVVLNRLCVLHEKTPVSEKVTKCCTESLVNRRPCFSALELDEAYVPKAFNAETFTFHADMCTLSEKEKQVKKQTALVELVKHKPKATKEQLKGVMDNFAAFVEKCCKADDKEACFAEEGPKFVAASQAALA
T3 sequence (P07724 25-608 limits assumed): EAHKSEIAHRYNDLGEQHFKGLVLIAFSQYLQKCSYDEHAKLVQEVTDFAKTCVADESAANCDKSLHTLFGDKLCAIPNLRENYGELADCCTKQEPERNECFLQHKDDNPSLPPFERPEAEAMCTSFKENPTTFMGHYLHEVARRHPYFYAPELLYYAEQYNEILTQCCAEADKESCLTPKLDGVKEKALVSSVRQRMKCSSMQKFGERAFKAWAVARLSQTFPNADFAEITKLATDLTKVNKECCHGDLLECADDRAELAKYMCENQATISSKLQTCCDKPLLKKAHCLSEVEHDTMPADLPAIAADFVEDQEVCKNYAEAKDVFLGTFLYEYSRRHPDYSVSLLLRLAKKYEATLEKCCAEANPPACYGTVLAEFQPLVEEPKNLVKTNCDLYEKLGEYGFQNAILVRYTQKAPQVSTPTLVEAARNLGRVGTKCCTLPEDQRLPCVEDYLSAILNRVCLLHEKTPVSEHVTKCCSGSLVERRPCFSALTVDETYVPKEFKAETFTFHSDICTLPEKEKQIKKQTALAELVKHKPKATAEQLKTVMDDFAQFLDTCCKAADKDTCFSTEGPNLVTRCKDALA
Chain of canine serum albumin (P49822 25-608 limits assumed): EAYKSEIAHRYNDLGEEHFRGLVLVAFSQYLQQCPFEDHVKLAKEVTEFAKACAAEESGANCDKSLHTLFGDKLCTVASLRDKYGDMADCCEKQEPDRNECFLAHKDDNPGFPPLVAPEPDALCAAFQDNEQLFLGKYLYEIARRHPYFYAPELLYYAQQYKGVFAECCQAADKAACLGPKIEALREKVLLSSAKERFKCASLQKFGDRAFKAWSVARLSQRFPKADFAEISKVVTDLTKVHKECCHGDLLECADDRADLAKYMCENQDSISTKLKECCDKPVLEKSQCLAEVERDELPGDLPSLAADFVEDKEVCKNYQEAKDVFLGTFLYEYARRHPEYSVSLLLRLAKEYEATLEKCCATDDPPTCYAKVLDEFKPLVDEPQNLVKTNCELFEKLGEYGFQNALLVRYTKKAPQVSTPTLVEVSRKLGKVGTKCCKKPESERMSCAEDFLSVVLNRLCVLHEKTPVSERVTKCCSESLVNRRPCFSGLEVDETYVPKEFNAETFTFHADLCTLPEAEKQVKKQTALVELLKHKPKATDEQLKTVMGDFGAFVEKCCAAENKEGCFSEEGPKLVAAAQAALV

B1: HSA-41 (designed binder)
chain: MIPRGLSEAKPATPEIQEIVDKVKPQLEEKTNETYGKLEAVQYKTQVLANFFQRRWPGSTNYYIKVRAGDNKYMHLKVFNGPWKFRNTDRGADRVLTGYQVDKNKDDELTGFHHHHHH
notes: also called HSA-41 parent; HSA-41 AH parent
binding response [1]: 36.8
Kd [2]: 7.1 nM
Kd [3]: 105 nM
Kd [4]: 95.2 nM
EC50 (read off the curve) [5]: ~6 nM
EC50 [6]: 0.04 nM
EC50 (read off the curve) [7]: ~0.7 nM
EC50 (read off the curve) [8]: ~3 nM
Kd [9]: 5.2 nM
Kd [10]: 71.5 nM
Kd [11]: 47.9 nM
Kd [12]: 3.34 nM
koff [12]: 0.00563 s⁻¹
kon [12]: 1.69e+06 M⁻¹ s⁻¹
Kd [13]: 2.59 nM
koff [13]: 0.0037 s⁻¹
kon [13]: 1.43e+06 M⁻¹ s⁻¹
Kd [14]: 112 nM
koff [14]: 0.0546 s⁻¹
kon [14]: 488000 M⁻¹ s⁻¹
Kd [15]: 67.8 nM
koff [15]: 0.139 s⁻¹
kon [15]: 2.04e+06 M⁻¹ s⁻¹
EC50 (read off the curve) [16]: ~2 nM
Kd [17]: 2.84 nM
koff [17]: 0.00347 s⁻¹
kon [17]: 1.22e+06 M⁻¹ s⁻¹
